From paper PMC5532264

Key:
[1] = cell surface expression by flow cytometry, CHO; settings: glycan lost; control: DC-SIGN-WT
[2] = linear fit to averaged AFM retraction FD-curves; settings: glycan lost; control: untreated CHO-DC-SIGN-WT
[3] = AFM, tether rupture events per retraction; settings: glycan lost; control: DC-SIGN-WT

B1: DC-SIGN (CD209): N80A (protein)
parent chain: MSDSKEPRLQQLGLLEEEQLRGLGFRQTRGYKSLAGCLGHGPLVLQLLSFTLLAGLLVQVSKVPSSISQEQSRQDAIYQNLTQLKAAVGELSEKSKLQEIYQELTQLKAAVGELPEKSKLQEIYQELTRLKAAVGELPEKSKLQEIYQELTWLKAAVGELPEKSKMQEIYQELTRLKAAVGELPEKSKQQEIYQELTRLKAAVGELPEKSKQQEIYQELTRLKAAVGELPEKSKQQEIYQELTQLKAAVERLCHPCPWEWTFFQGNCYFMSNSQRNWHDSITACKEVGAQLVVIKSAEEQNFLQLQSSRSNRFTWMGLSDLNQEGTWQWVDGSPLLPSFKQYWNRGEPNNVGEEDCAEFSGNGWNDDKCNLAKFWICKKSAASCSRDEEQFLSPAPATPNPPPA
Q: What does the source list for B1?
A: expression_or_secretion [1]: no change; other: adhesion-site elasticity (cell stiffening), fold_change [2]: decreases; other: membrane tether formation [3]: no change
